Reference: US20220347267A1, “METHODS TO IMPROVE PATIENT RESPONSE TO IMMUNE CHECKPOINT INHIBITORS AND FUNCTIONAL TESTS TO PREDICT RESPONSE” (Biomarker Strategies, LLC, priority 2019, published 2022)

Key:
Format in all cases: cell-based, human
BT549 cells = test: PD-L1 western blot after modulators (EM and MTAs); conditions: Breast BT549, 30 minutes, 3 hours, 24 hours
Excerpt: (§1) Cell lines were acquired from ATCC, Sigma, or DSMZ. Human non-small cell lung carcinoma (NSCLC) cell lines H292 (ATCC no. CRL-1848.), H1299 (ATCC no. CRL-5803), H520 (ATCC no. CRL-5811), CALU6 (ATCC no. HTB-56), H1975 (ATCC no. CRL-5908), H460 (ATCC no. HTB-177), H2126 (ATCC no. CCL-256), H1650 (ATCC no. CRL-5883), and H2087 (ATCC no. CRL-5922) were used for this experiment along with head and neck squamous cell carcinoma (HNSCC) cell lines BHY (DSMZ ACC 404), CAL27 (ATCC no. CRL-2095), KYSE410 (Sigma), and A253 (ATCC no. HTB-41), melanoma cell lines A375 (ATCC no. CRL-1619), COL0853 (Sigma), and MM127 (Sigma) pancreatic cancer cell lines BXPC3 (ATCC no. CRL-1687), colorectal cancer cell lines […], HCT116 (ATCC no. CCL-247EMT), and breast cancer cell lines BT549 (ATCC no. HTB-122), BT20 (ATCC no. HTB-19), and T47D (ATCC no. HTB-133). Cells were maintained in manufacturer-recommended conditions at 37° C. inside humidified 5% CO2 incubators. Sub-cultivation and harvesting for all cell lines were performed using Accutase (GIBCO Life Technologies; cat. no. A1110501) at 37° C. for 10 minutes. Cell viability was measured using trypan blue exclusion staining in conjunction with the Countess II Automated Cell Counter (Thermo Fischer Scientific; cat. no. AMQAX1000). Measurements were made in duplicate and the average number of viable cells was recorded prior to experiments.
(§2) T7039), and IL-10 (50 ng/ml; Sigma Aldrich cat. no. SRP3071) were administered to cell lines for various times including 30 minutes, 3 hour, and 24 hour time intervals prior to cell lysis and protein extraction.
(§3) To determine the effects of the aforementioned molecules on the modulation of PD-L1, we selected various NSCLC, HNSCC, breast cancer, melanoma, colorectal cancer, and pancreatic cancer cell lines as examples. Other diseases or cell lines could be used readily as could more complex samples such as cells isolated from xenografts and clinical samples. Cells were plated, for three different time points (30 minutes, 3 hours, and 24 hours), inside 6-well petri dishes with 2 mL of appropriate medium. Plates were incubated for 24 hours in 5% CO2 incubators at 37° C. After 24 hours, each 6-well plate was washed with PBS (Gibco Life Technologies, cat. no. 10010023) followed by fresh media being added along with each cell line's vehicle control or appropriate modulator for each specific time point, and were placed in CO2 incubators until their modulation time point was reached. Other conditions can be readily used, such as processing on automated systems such as SnapPath. At the end of each time point, while keeping plates on ice, cell lysis was conducted by aspirating culture medium from each plate, washing of each plate three times with 5 ml of cold PBS (Gibco Life Technologies, cat. no. 10010023) and culminated with the addition of cold 1× lysis buffer containing (Cell Signaling, cat. no. 9803 S) protease inhibitor cocktail (Cell Signaling, cat. no. 5871S), phosphatase inhibitor cocktail (Cell Signaling, cat. no. 5870S), and PMSF (Fisher Scientific, cat. no. ICN19538101). Plates were then placed on ice for ten minutes, swirling each plate intermittently. Aliquots of protein lysates were prepared and then stored at −80° C. until protein quantification and Western blot analysis was to be conducted. The protein concentration of each lysate was analyzed by using the Pierce 660 Protein Assay Reagent (Thermo Fisher Scientific, cat. no. 22660) and testing of each sample was conducted in duplicate. Two μg of protein was then loaded per lane into 10% Midi-PROTEAN TGX Precast Gels (Bio Rad, cat. no. 5671034) along with Kaleidoscope Prestained Protein Standard (BioRad, cat. no. 1610375) which ran at 220V for 45 minutes. Proteins were transferred to mini-PVDF membranes (BioRad, cat. no. 1704156) in 3 minutes using the Trans-Blot Turbo Transfer System (BioRad, cat. no. 1704150EDU).

H1650 cells [1] = test: PD-L1 western blot after modulators (EM and MTAs); conditions: NSCLC H1650, 30 minutes, 3 hours, 24 hours
Excerpt: as §1, §2, §3

H460 cells = test: PD-L1 western blot after modulators (EM and MTAs); conditions: NSCLC H460, 30 minutes, 3 hours, 24 hours
Excerpt: as §1, §2, §3

H292 cells = test: PD-L1 western blot after modulators (EM and MTAs); conditions: NSCLC H292, 30 minutes, 3 hours, 24 hours
Excerpt: as §1, §2, §3

H1650 cells [2] = test: PD-L1 mRNA one step RT-qPCR, IFNγ treatment; conditions: 10 ng/mL IFNγ for 24h, 2^-ΔΔCt normalized by GAPDH
Method: (§4) Additionally, the presence, abundance and ratio of different PD-L1 mRNA forms can be used to predict response. As way of example, PD-L1 mRNA were measured using primers amplifying within exon 3-4 (extracellular region of the transcribed protein that interacts with PD1). Other amplicons detecting the same or other forms can be used readily. For example, amplicons corresponding to the transmembrane and cytoplasmic tail to confirm full length plasma membrane bound protein is transcribed, or regions overlapping with either PD1 or anti-PD-L1 binding sites. Five cell lines (H460, H1299, H1650, H2126 and SKMES1) were treated with vehicle or 10 ng/mL IFNγ for 24h. More complex sample types, including cells isolated from solid tumors from preclinical and clinical cancers be used. Other time points, including those as early as 1h for IRF or 4h for PD-L1, can be readily used. RNA was isolated from the cells using an NEB kit (Cat #T2010) per the manufacturer's instructions. Isolated RNA was estimated using a NanoDrop […] and checked for its quality by checking the 260/280 ratio. RNA concentration was brought to 40 ng/uL in all the samples to take equal quantity for further steps of RT and real time PCR. One step RT-qPCR was performed using a Power SYBR Green RNA to Ct One step kit (Cat #4931198) as per the manufacturer's instructions. A 200 ng RNA template was taken for total 20 uL reaction per well in 96 well PCR microplate for Roche 480 Light cycler. The following primer pairs (Sigma) were used for PD-L1 and GAPDH and were used at a concentration in the reaction mixture of 400 nM:
(§5) A Roche 480 Light cycler was used for performing the one step real time PCR. Data was analyzed using 2^-ΔΔCt method normalized by GAPDH for relative levels. Alternative housekeeper genes may be readily used.

H1299 cells = test: PD-L1 mRNA one step RT-qPCR, IFNγ treatment; conditions: 10 ng/mL IFNγ for 24h, 2^-ΔΔCt normalized by GAPDH
Method: as §4, §5

SKMES1 cells = test: PD-L1 mRNA one step RT-qPCR, IFNγ treatment; conditions: 10 ng/mL IFNγ for 24h, normalized by GAPDH
Method: as §4, §5

B1: IFNγ: human IFNγ, modulator (10 ng/ml; Sigma Aldrich) (protein, UniProt P01579 24-161, looked up)
Interferon gamma: QDPYVKEAENLKKYFNAGHSDVADNGTLFLGILKNWKEESDRKIMQSQIVSFYFKLFKNFKDDQSIQKSVETIKEDMNVKFFNSNKKKRDDFEKLTNYSVTDLNVQRKAIHELIQVMAELSPAAKTGKRKRSQMLFRG
For B1, the “PD-L1 Response” value (BT549 cells) was “Up”, the “PD-L1 Response” value (H1650 cells [1]) was “Up” and the “PD-L1 Response” value (H460 cells) was “Up”. The “PD-L1 Response” value (H292 cells) was “Up”, the “relative increase of PD-L1 mRNA upon IFNγ exposure” value (H1650 cells [2]) was 2.2 fold and the “relative increase of PD-L1 mRNA upon IFNγ exposure” value (H1299 cells) was 1.7 fold. For the same molecule, the “change of PD-L1 mRNA upon IFNγ exposure” value (SKMES1 cells) was “no change”.
